Reference: PMC10467612 (RSC Chemical Biology, 2023)

How the values were obtained:
GrsA = target: T1, GrsA (Aneurinibacillus migulanus, UniProt P0C061); test: isothermal titration calorimetry; format: binding
T1 sequence (P0C061 1-428 limits assumed): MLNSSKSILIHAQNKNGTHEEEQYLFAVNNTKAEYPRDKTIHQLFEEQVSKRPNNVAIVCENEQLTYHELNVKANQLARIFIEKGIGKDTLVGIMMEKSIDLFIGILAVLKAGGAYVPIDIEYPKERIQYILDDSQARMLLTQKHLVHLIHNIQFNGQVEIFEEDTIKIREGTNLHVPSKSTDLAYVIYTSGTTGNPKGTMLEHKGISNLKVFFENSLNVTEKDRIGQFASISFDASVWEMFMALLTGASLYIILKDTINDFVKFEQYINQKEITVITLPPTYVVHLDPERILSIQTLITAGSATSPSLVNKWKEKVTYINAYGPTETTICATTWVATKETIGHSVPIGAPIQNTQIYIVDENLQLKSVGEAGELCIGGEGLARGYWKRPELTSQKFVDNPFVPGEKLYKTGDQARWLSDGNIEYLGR

NC(Cc1cccc(F)c1)C(=O)O = test: adenylation saturation kinetics; format: biochemical, Aneurinibacillus migulanus; details: ATP A-domain binding pocket enlarged by W239S
NC(Cc1ccccc1F)C(=O)O = test: adenylation saturation kinetics; format: biochemical, Aneurinibacillus migulanus; details: ATP A-domain binding pocket enlarged by W239S
[1] = substrate: NC(Cc1cc(F)cc(F)c1)C(=O)O; test: adenylation saturation kinetics; format: biochemical, Aneurinibacillus migulanus; details: ATP A-domain binding pocket; T-shaped aromatic interaction with Trp239
[2] = substrate: NC(Cc1cccc(F)c1)C(=O)O; test: adenylation saturation kinetics; format: biochemical, Aneurinibacillus migulanus; details: ATP A-domain binding pocket; T-shaped aromatic interaction with Trp239
[3] = substrate: NC(Cc1ccccc1F)C(=O)O; test: adenylation saturation kinetics; format: biochemical, Aneurinibacillus migulanus; details: ATP A-domain binding pocket; T-shaped aromatic interaction with Trp239
[4] = substrate: CC(C)(F)C(N)C(=O)O; test: adenylation saturation kinetics; format: biochemical, Bacillus subtilis; details: ATP
[5] = substrate: CC(C)C(N)C(=O)O; test: adenylation saturation kinetics; format: biochemical, Bacillus subtilis; details: ATP

`NC(Cc1ccccc1)C(=O)O` (racemic) [Phe] was tested, and the Kd (GrsA) was 60 ± 10 µM.

In the case of “GrsA-W239S (Aneurinibacillus migulanus; W239S)”, the Km (NC(Cc1cccc(F)c1)C(=O)O) is reported as 900 ± 100 µM, the kcat (NC(Cc1cccc(F)c1)C(=O)O) is reported as 0.233 ± 0.0167 s⁻¹ and the kcat/Km (NC(Cc1cccc(F)c1)C(=O)O) is reported as 250 M⁻¹ s⁻¹. For the same molecule, the Km (NC(Cc1ccccc1F)C(=O)O) was 3000 ± 1000 µM, the kcat (NC(Cc1ccccc1F)C(=O)O) was 0.667 ± 0.167 s⁻¹ and the kcat/Km (NC(Cc1ccccc1F)C(=O)O) was 267 M⁻¹ s⁻¹.

B1: GrsA (Aneurinibacillus migulanus) (protein)
chain: MLNSSKSILIHAQNKNGTHEEEQYLFAVNNTKAEYPRDKTIHQLFEEQVSKRPNNVAIVCENEQLTYHELNVKANQLARIFIEKGIGKDTLVGIMMEKSIDLFIGILAVLKAGGAYVPIDIEYPKERIQYILDDSQARMLLTQKHLVHLIHNIQFNGQVEIFEEDTIKIREGTNLHVPSKSTDLAYVIYTSGTTGNPKGTMLEHKGISNLKVFFENSLNVTEKDRIGQFASISFDASVWEMFMALLTGASLYIILKDTINDFVKFEQYINQKEITVITLPPTYVVHLDPERILSIQTLITAGSATSPSLVNKWKEKVTYINAYGPTETTICATTWVATKETIGHSVPIGAPIQNTQIYIVDENLQLKSVGEAGELCIGGEGLARGYWKRPELTSQKFVDNPFVPGEKLYKTGDQARWLSDGNIEYLGRIDNQVKIRGHRVELEEVESILLKHMYISETAVSVHKDHQEQPYLCAYFVSEKHIPLEQLRQFSSEELPTYMIPSYFIQLDKMPLTSNGKIDRKQLPEPDLTFGMRVDYEAPRNEIEETLVTIWQDVLGIEKIGIKDNFYALGGDSIKAIQVAARLHSYQLKLETKDLLKYPTIDQLVHYIKDSKRRSEQGIVEGEIGLTPIQHWFFEQQFTNMHHWNQSYMLYRPNGFDKEILLRVFNKIVEHHDALRMIYKHHNGKIVQINRGLEGTLFDFYTFDLTANDNEQQVICEESARLQNSINLEVGPLVKIALFHTQNGDHLFMAIHHLVVDGISWRILFEDLATAYEQAMHQQTIALPEKTDSFKDWSIELEKYANSELFLEEAEYWHHLNYYTENVQIKKDYVTMNNKQKNIRYVGMELTIEETEKLLKNVNKAYRTEINDILLTALGFALKEWADIDKIVINLEGHGREEILEQMNIARTVGWFTSQYPVVLDMQKSDDLSYQIKLMKENLRRIPNKGIGYEIFKYLTTEYLRPVLPFTLKPEINFNYLGQFDTDVKTELFTRSPYSMGNSLGPDGKNNLSPEGESYFVLNINGFIEEGKLHITFSYNEQQYKEDTIQQLSRSYKQHLLAIIEHCVQKEDTELTPSDFSFKELELEEMDDIFDLLADSLT
For B1, the Km [1] was 14 ± 3 µM, the kcat [1] was 0.517 ± 0.0333 s⁻¹ and the kcat/Km [1] was 36700 M⁻¹ s⁻¹. It also gave a Km [2] of 14 ± 5 µM, a kcat [2] of 0.35 ± 0.0333 s⁻¹ and a kcat/Km [2] of 25000 M⁻¹ s⁻¹. It also gave a Km [3] of 20 ± 2 µM, a kcat [3] of 0.458 ± 0.0133 s⁻¹ and a kcat/Km [3] of 23300 M⁻¹ s⁻¹.

B2: SrfA-B1 (Bacillus subtilis subsp. subtilis str. 168) (protein)
chain: ASTAVVYEGTKLTYRELNAAANRLARKLVEHGLQKGETAAIMNDRSVETVVGMLAVLKAGAAYVPLDPALPGDRLRFMAEDSSVRMVLIGNSYTGQAHQLQVPVLTLDIGFEESEAADNLNLPSAPSDLAYIMYTSGSTGKPKGVMIEHKSILRLVKNAGYVPVTEEDRMAQTGAVSFDAGTFEVFGALLNGAALYPVKKETLLDAKQFAAFLREQSITTMWLTSPLFNQLAAKDAGMFGTLRHLIIGGDALVPHIVSKVKQASPSLSLWNGYGPTENTTFSTSFLIDREYGGSIPIGKPIGNSTAYIMDEQQCLQPIGAPGELCVGGIGVARGYVNLPELTEKQFLEDPFRPGERIYRTGDLARWLPDGNIEFLGRIDNQVKVRGFRIELGEIETKLNMAEHVTEAAVIIRKNKADENEICAYFTADREVAVSELRKTLSQSLPDYMVPAHLIQMDSLPLTPNGKINKKELPAPQSEAVQ
Work on B2 yielded a Km [4] of 8000 ± 1000 µM, a kcat [4] of 0.467 ± 0.05 s⁻¹ and a kcat/Km [4] of 58.3 M⁻¹ s⁻¹. The Km [5] was 60 ± 20 µM, the kcat [5] was 0.133 ± 0.0333 s⁻¹ and the kcat/Km [5] was 2330 M⁻¹ s⁻¹.
